Common to all, as to assay: flow cytometry on cells
For experiment [1], the target named is Y353, yeast surface-displayed ACE2(614) variant from sort 4 (human) (UniProt Q9BYF1).
For experiment [2], the target named is best-characterized ACE2(614) mutant from sort 3.1, yeast surface-displayed (human) (UniProt Q9BYF1).
Experiment [3] has as its target Y373, yeast surface-displayed ACE2(614) variant from sort 5 (human) (UniProt Q9BYF1).

For the substance “SARS-CoV-2 spike RBD monomer (328-533), 8XHis tag and AviTag, biotinylated (from UniProt P0DTC2 328-533) (domain or fragment)”, the figures for the Kd in experiment [1], in experiment [2] and in experiment [3] were 0.19 nM, 0.52 nM and 0.12 nM, respectively.

Source of the values: article doi:10.1101/2020.07.31.231746.
